Sequences and labels used below:
B1: Paip2A(25-83) (residues 25-83 of PABP-interacting protein 2A) (domain or fragment, human, UniProt Q9BPZ3 25-83, looked up)
chain: HEDDNPFAEYMWMENEEEFNRQIEEELWEEEFIERCFQEMLEEEEEHEWFIPARDLPQT
B3: PABPC1 RRM2/3 (residues 100-289) (domain or fragment, human)
chain: GPLGSNIFIKNLDKSIDNKALYDTFSAFGNILSCKVVCDENGSKGYGFVHFETQEAAERAIEKMNGMLLNDRKVFVGRFKSRKEREAELGARAKEFTNVYIKNFGEDMDDERLKDLFGKFGPALSVKVMTDESGKSKGFGFVSFERHEDAQKAVDEMNGKELNGKQIYVGRAQKKVERQTELKRKFEQMKQDRIT
B4: PABPC1 RRM2 including the RRM2-3 linker (residues 100-190) (domain or fragment)
chain: not shown
B5: PABPC1 RRM3 including the RRM3-4 linker (residues 191-289) (domain or fragment, human, UniProt P11940 191-289, looked up)
chain: TNVYIKNFGEDMDDERLKDLFGKFGPALSVKVMTDESGKSKGFGFVSFERHEDAQKAVDEMNGKELNGKQIYVGRAQKKVERQTELKRKFEQMKQDRIT

The target of assay [1] is B4. In words: ITC. Background: In ITC the heat of successive injections is recorded.
Assay [2] has as its target B5. In words: ITC.
Assay [3] has as its target B3. The experiment in a line: ITC.
Assay [4] concerns the target B3. The experiment in a line: NMR titration.
The target of assay [5] is poly(A)-binding protein C1 (PABPC1), full length (human, UniProt P11940 1-636). In words: SPR.
Assay [6] deals with PABPC1 RRM1/2/3/4 (residues 1-370) (human, UniProt P11940 1-370). The experiment in a line: SPR. For orientation: In SPR one partner is held on a chip, and binding of the other changes the refractive index at the surface.
The target in assay [7] is B1. The experiment in a line: ITC.

In general, Kd refers to the free concentration of one partner at which half of the binding sites on the other are occupied at equilibrium, for simple one-to-one binding. High values mean a looser complex, low ones a tighter complex. What is called stoichiometry N is the number of molecules, sites or subunits per partner or assembly.

On to B1, for which the figures for the Kd in assay [1], in assay [2] and in assay [3] were 4 µM, 1300 nM and 1.9 nM, respectively.

B2: PABP-interacting protein 2A (Paip2A), full length (natural protein, human, UniProt Q9BPZ3 1-127, looked up)
chain: MKDPSRSSTSPSIINEDVIINGHSHEDDNPFAEYMWMENEEEFNRQIEEELWEEEFIERCFQEMLEEEEEHEWFIPARDLPQTMDQIQDQFNDLVISDGSSLEDLVVKSNLNPNAKEFVPGVKYGNI
As to B2, the binding result in assay [4], in assay [5] and in assay [6] was “binds” in each case.

On to B3, for which, in assay [7], the dH is -230 kJ/mol and the “stoichiometry N” value was found to be 0.83.

Regarding B4, in assay [7], the dH was -120 kJ/mol and the “stoichiometry N” value amounted to 0.87.

On to B5, for which, in assay [7], the dH was -180 kJ/mol and the “stoichiometry N” value is 0.87.

Values taken from article PMC9019252 (The Journal of Biological Chemistry, 2022).
